Measurements published in IntAct's records for PubMed 35512704.

B1: Speckle-type POZ protein (Homo sapiens), O43791 (parent)
chain: MSRVPSPPPPAEMSSGPVAESWCYTQIKVVKFSYMWTINNFSFCREEMGEVIKSSTFSSGANDKLKWCLRVNPKGLDEESKDYLSLYLLLVSCPKSEVRAKFKFSILNAKGEETKAMESQRAYRFVQGKDWGFKKFIRRDFLLDEANGLLPDDKLTLFCEVSVVQDSVNISGQNTMNMVKVPECRLADELGGLWENSRFTDCCLCVAGQEFQAHKAILAARSPVFSAMFEHEMEESKKNRVEINDVEPEVFKEMMCFIYTGKAPNLDKMADDLLAAADKYALERLKVMCEDALCSNLSVENAAEILILADLHSADQLKTQAVDFINYHASDVLETSGWKSMVVSHPHLVAEAYRSLASAQCPFLGPPRKRLKQS
partner: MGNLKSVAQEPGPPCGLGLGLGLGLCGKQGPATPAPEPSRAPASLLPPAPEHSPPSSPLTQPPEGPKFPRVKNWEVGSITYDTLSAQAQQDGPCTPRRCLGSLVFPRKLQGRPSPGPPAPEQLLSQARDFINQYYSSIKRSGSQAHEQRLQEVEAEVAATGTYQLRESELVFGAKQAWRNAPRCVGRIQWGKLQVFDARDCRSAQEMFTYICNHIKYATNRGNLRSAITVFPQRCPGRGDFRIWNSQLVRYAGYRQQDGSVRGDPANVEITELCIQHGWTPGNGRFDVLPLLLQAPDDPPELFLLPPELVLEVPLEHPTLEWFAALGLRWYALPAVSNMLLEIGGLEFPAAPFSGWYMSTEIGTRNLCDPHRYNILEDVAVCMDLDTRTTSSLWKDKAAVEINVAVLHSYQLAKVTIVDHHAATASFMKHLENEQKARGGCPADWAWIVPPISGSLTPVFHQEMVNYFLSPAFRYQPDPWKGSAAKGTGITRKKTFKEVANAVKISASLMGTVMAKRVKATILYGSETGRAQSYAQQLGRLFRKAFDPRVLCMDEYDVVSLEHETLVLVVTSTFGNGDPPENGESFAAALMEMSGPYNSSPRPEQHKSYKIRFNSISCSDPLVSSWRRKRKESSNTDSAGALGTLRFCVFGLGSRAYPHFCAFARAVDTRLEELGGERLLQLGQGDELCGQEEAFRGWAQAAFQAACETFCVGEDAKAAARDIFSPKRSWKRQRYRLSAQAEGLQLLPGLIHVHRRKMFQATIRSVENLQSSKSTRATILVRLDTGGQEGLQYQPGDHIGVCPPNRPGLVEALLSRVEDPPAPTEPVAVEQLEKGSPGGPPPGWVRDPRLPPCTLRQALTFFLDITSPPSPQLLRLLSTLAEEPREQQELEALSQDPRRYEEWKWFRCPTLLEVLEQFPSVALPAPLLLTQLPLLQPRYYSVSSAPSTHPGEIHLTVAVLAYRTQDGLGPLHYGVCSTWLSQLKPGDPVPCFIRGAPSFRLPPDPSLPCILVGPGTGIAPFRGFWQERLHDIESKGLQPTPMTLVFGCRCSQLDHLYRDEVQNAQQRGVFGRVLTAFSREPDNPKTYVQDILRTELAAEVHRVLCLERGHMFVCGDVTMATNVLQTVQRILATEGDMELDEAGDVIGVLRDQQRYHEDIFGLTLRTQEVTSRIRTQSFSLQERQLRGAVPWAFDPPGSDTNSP
B2: Speckle-type POZ protein (Homo sapiens), O43791 (parent)
chain: B1 chain
partner: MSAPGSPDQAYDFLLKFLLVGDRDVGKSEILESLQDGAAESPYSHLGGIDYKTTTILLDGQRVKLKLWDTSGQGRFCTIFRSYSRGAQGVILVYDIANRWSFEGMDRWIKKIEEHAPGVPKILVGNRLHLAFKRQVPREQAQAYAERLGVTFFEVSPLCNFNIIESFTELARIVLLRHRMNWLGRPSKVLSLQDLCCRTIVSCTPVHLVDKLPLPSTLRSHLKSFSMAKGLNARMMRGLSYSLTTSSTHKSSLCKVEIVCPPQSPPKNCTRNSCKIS
B3: Speckle-type POZ protein (Homo sapiens), O43791 (parent)
chain: B1 chain
partner: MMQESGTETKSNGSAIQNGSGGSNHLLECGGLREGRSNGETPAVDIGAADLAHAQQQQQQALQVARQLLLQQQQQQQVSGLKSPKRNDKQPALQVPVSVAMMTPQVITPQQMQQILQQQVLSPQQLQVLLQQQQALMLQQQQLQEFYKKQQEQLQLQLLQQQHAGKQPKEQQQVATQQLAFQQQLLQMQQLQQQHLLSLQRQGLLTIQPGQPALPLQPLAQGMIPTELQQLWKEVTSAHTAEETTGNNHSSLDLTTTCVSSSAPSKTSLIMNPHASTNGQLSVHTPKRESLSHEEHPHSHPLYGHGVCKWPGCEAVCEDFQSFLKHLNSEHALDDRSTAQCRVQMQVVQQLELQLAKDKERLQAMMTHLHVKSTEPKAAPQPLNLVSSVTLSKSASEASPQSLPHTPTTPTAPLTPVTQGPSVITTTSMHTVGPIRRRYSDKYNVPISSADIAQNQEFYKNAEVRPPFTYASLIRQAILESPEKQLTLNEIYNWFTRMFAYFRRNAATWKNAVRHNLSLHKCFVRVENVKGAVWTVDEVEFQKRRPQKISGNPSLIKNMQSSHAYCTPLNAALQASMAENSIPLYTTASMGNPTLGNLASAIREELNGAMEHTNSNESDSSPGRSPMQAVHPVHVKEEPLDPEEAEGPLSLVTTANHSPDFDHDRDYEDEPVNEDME
B4: Speckle-type POZ protein (Homo sapiens), O43791 (parent)
chain: B1 chain
partner: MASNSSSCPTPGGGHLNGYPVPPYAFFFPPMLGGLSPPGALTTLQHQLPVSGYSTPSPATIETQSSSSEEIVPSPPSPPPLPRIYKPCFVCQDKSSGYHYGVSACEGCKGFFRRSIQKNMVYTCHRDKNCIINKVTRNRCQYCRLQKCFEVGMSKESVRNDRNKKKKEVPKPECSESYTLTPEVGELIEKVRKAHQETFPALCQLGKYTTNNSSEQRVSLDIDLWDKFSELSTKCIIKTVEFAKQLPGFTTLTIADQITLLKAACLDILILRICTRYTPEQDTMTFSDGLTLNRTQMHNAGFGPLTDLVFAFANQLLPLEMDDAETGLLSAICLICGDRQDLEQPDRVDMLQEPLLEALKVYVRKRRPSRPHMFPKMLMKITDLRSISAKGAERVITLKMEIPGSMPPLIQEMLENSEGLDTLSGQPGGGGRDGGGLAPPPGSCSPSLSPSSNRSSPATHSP
B5: Speckle-type POZ protein (Homo sapiens), O43791 (parent)
chain: B1 chain
partner: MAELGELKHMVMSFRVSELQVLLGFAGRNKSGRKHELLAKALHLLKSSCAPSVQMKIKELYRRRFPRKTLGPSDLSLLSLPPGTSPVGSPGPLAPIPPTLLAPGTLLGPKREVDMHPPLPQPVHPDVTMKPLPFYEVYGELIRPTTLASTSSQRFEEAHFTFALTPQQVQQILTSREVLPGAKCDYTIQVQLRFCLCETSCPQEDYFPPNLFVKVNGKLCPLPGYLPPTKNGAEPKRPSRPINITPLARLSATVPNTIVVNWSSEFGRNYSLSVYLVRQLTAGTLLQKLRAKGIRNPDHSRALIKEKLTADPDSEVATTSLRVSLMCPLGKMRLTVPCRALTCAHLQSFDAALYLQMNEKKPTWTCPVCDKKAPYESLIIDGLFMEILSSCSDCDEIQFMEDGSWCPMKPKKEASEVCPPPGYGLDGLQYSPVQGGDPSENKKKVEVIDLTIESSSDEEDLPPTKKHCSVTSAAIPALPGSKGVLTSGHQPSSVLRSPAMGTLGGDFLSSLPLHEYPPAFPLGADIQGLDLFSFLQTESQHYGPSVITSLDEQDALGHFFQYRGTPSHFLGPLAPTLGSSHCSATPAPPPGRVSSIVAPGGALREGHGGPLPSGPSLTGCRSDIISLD
B6: Speckle-type POZ protein (Homo sapiens), O43791 (parent)
chain: B1 chain
partner: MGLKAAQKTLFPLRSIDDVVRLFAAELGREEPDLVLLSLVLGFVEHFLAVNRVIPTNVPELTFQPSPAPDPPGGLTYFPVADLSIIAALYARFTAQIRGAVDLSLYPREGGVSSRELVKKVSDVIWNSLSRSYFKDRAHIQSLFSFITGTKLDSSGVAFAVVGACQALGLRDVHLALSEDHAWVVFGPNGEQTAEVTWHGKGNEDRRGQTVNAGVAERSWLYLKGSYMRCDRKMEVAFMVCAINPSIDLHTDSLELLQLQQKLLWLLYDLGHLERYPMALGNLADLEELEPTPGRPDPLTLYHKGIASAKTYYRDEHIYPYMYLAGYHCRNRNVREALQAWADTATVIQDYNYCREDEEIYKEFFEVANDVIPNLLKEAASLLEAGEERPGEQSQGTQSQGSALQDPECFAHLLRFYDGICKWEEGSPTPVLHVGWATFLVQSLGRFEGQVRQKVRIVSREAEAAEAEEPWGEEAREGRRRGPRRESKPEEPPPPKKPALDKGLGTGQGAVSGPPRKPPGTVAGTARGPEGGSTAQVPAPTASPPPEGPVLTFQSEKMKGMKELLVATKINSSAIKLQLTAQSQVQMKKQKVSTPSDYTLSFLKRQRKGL

Variants of: B1
Conditions: with nos3_human NOS3, P29474

Row | effect of a mutation on the interaction | Variant
1 | with no effect | F133V

Variants of: B1
Conditions: with nos3_human NOS3, P29474
Remark: another data set of the same source

Row | effect of a mutation on the interaction | Variant
2 | with no effect | F133L

Variants of: B1
Conditions: with nos3_human NOS3, P29474
Remark: another data set of the same source

Row | effect of a mutation on the interaction | Variant
3 | with no effect | F102C

Variants of: B1
Conditions: with nos3_human NOS3, P29474
Remark: another data set of the same source

Row | effect of a mutation on the interaction | Variant
4 | with no effect | Y87C

Variants of: B2
Conditions: with rb40a_human RAB40A

Row | effect of a mutation on the interaction | Variant
5 | with no effect | Y87C

Variants of: B2
Conditions: with rb40a_human RAB40A
Remark: another data set of the same source

Row | effect of a mutation on the interaction | Variant
6 | with no effect | F102C

Variants of: B2
Conditions: with rb40a_human RAB40A
Remark: another data set of the same source

Row | effect of a mutation on the interaction | Variant
7 | with no effect | F133V

Variants of: B2
Conditions: with rb40a_human RAB40A
Remark: another data set of the same source

Row | effect of a mutation on the interaction | Variant
8 | with no effect | F133L

Variants of: B3
Conditions: with foxp1_human FOXP1, Q9H334

Row | effect of a mutation on the interaction | Variant
9 | with no effect | F133L

Variants of: B3
Conditions: with foxp1_human FOXP1, Q9H334
Remark: another data set of the same source

Row | effect of a mutation on the interaction | Variant
10 | causing an interaction | F133V

Variants of: B3
Conditions: with foxp1_human FOXP1, Q9H334
Remark: another data set of the same source

Row | effect of a mutation on the interaction | Variant
11 | with no effect | F102C

Variants of: B3
Conditions: with foxp1_human FOXP1, Q9H334
Remark: another data set of the same source

Row | effect of a mutation on the interaction | Variant
12 | with no effect | Y87C

Variants of: B4
Conditions: with rara_human RARA

Row | effect of a mutation on the interaction | Variant
13 | with no effect | F133V

Variants of: B4
Conditions: with rara_human RARA
Remark: another data set of the same source

Row | effect of a mutation on the interaction | Variant
14 | with no effect | F133L

Variants of: B4
Conditions: with rara_human RARA
Remark: another data set of the same source

Row | effect of a mutation on the interaction | Variant
15 | with no effect | F102C

Variants of: B4
Conditions: with rara_human RARA
Remark: another data set of the same source

Row | effect of a mutation on the interaction | Variant
16 | with no effect | Y87C

Variants of: B5
Conditions: with pias3_human PIAS3, Q9Y6X2

Row | effect of a mutation on the interaction | Variant
17 | with no effect | F133V

Variants of: B5
Conditions: with pias3_human PIAS3, Q9Y6X2
Remark: another data set of the same source

Row | effect of a mutation on the interaction | Variant
18 | with no effect | F133L

Variants of: B5
Conditions: with pias3_human PIAS3, Q9Y6X2
Remark: another data set of the same source

Row | effect of a mutation on the interaction | Variant
19 | with no effect | F102C

Variants of: B5
Conditions: with pias3_human PIAS3, Q9Y6X2
Remark: another data set of the same source

Row | effect of a mutation on the interaction | Variant
20 | with no effect | Y87C

Variants of: B6
Conditions: with men1_human MEN1, O00255

Row | effect of a mutation on the interaction | Variant
21 | with no effect | Y87C

Variants of: B6
Conditions: with men1_human MEN1, O00255
Remark: another data set of the same source

Row | effect of a mutation on the interaction | Variant
22 | with no effect | F133V

Variants of: B6
Conditions: with men1_human MEN1, O00255
Remark: another data set of the same source

Row | effect of a mutation on the interaction | Variant
23 | with no effect | F133L
